Laboratory results: the supplement of paper PMC9112550, “Optimization of the antimicrobial peptide Bac7 by deep mutational scanning” (BMC Biology, 2022)

The sequences below were run on Escherichia coli TOP10 (assay: shrunken log2 fold change of peptide-encoding DNA abundance (4.5 h post-induction vs induction); higher = less antimicrobial activity (less host growth inhibition)). Conditions: time post-induction: 4.5 h; library: site-saturation at positions 5, 18, 19, 20.
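Further: peptides expressed intracellularly from a pBAD plasmid library in pooled LB shake-flask culture, induced with 0.3% L-arabinose, DNA abundance read by NGS, three biological replicates, DESeq2 with apeglm shrinkage.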

Sequence	shrunken log2 fold change
RRIRCRPPRLPRPRPRPIRAPRP	-0.0291
RRIRCRPPRLPRPRPRPIRHPRP	-0.146
RRIRCRPPRLPRPRPRPISQPRP	-0.544
RRIRCRPPRLPRPRPRPITQPRP	-0.0791
RRIRCRPPRLPRPRPRPIVAPRP	0.0801
RRIRCRPPRLPRPRPRPIWAPRP	-0.0162
RRIRCRPPRLPRPRPRPIWKPRP	0.0906
RRIRCRPPRLPRPRPRPIYCPRP	-0.14
RRIRCRPPRLPRPRPRPIYSPRP	-0.59
RRIRCRPPRLPRPRPRPKDWPRP	0.378
RRIRCRPPRLPRPRPRPKFYPRP	-0.309
RRIRCRPPRLPRPRPRPKGLPRP	-0.134
RRIRCRPPRLPRPRPRPKILPRP	-0.0835
RRIRCRPPRLPRPRPRPKINPRP	-0.645
RRIRCRPPRLPRPRPRPKIPPRP	-0.284
RRIRCRPPRLPRPRPRPKKDPRP	-0.000499
RRIRCRPPRLPRPRPRPKKGPRP	-0.129
RRIRCRPPRLPRPRPRPKKLPRP	0.063
RRIRCRPPRLPRPRPRPKKQPRP	0.155
RRIRCRPPRLPRPRPRPKLFPRP	0.132
RRIRCRPPRLPRPRPRPKLSPRP	0.22
RRIRCRPPRLPRPRPRPKLYPRP	-0.38
RRIRCRPPRLPRPRPRPKMSPRP	0.157
RRIRCRPPRLPRPRPRPKNLPRP	-0.292
RRIRCRPPRLPRPRPRPKNNPRP	-0.188

Sequence	shrunken log2 fold change
RRIRCRPPRLPRPRPRPKNYPRP	-0.676
RRIRCRPPRLPRPRPRPKPRPRP	0.749
RRIRCRPPRLPRPRPRPKQAPRP	-0.0334
RRIRCRPPRLPRPRPRPKRCPRP	-0.00852
RRIRCRPPRLPRPRPRPKRPPRP	0.158
RRIRCRPPRLPRPRPRPKSQPRP	0.276
RRIRCRPPRLPRPRPRPKVRPRP	0.195
RRIRCRPPRLPRPRPRPKWIPRP	-0.366
RRIRCRPPRLPRPRPRPKYPPRP	-0.196
RRIRCRPPRLPRPRPRPLEKPRP	-0.072
RRIRCRPPRLPRPRPRPLELPRP	0.172
RRIRCRPPRLPRPRPRPLFDPRP	-0.426
RRIRCRPPRLPRPRPRPLFRPRP	-0.283
RRIRCRPPRLPRPRPRPLGMPRP	-0.433
RRIRCRPPRLPRPRPRPLHDPRP	0.0221
RRIRCRPPRLPRPRPRPLIVPRP	-0.596
RRIRCRPPRLPRPRPRPLKMPRP	-0.365
RRIRCRPPRLPRPRPRPLMFPRP	-0.433
RRIRCRPPRLPRPRPRPLNCPRP	-0.279
RRIRCRPPRLPRPRPRPLPKPRP	0.258
RRIRCRPPRLPRPRPRPLPNPRP	-0.0586
RRIRCRPPRLPRPRPRPLQNPRP	-0.0876
RRIRCRPPRLPRPRPRPLQVPRP	-0.481
RRIRCRPPRLPRPRPRPLSWPRP	0.513
RRIRCRPPRLPRPRPRPLVIPRP	-0.401

Sequence	shrunken log2 fold change
RRIRCRPPRLPRPRPRPLVMPRP	-0.0664
RRIRCRPPRLPRPRPRPLWGPRP	-0.26
RRIRCRPPRLPRPRPRPLWQPRP	-0.147
RRIRCRPPRLPRPRPRPLYKPRP	-0.275
RRIRCRPPRLPRPRPRPMAFPRP	-0.22
RRIRCRPPRLPRPRPRPMCAPRP	0.0886
RRIRCRPPRLPRPRPRPMCKPRP	-0.109
RRIRCRPPRLPRPRPRPMDAPRP	-0.0146
RRIRCRPPRLPRPRPRPMDNPRP	-0.411
RRIRCRPPRLPRPRPRPMENPRP	0.0267
RRIRCRPPRLPRPRPRPMFIPRP	-1.16
RRIRCRPPRLPRPRPRPMFTPRP	-0.497
RRIRCRPPRLPRPRPRPMFWPRP	-0.327
RRIRCRPPRLPRPRPRPMHKPRP	-0.203
RRIRCRPPRLPRPRPRPMKAPRP	-0.173
RRIRCRPPRLPRPRPRPMPSPRP	2.8
RRIRCRPPRLPRPRPRPMQRPRP	0.0282
RRIRCRPPRLPRPRPRPMRIPRP	0.497
RRIRCRPPRLPRPRPRPMTAPRP	0.0275
RRIRCRPPRLPRPRPRPMTRPRP	-0.275
RRIRCRPPRLPRPRPRPMVGPRP	-0.00233
RRIRCRPPRLPRPRPRPMWHPRP	-0.147
RRIRCRPPRLPRPRPRPMWIPRP	0.085
RRIRCRPPRLPRPRPRPMYLPRP	-0.464
RRIRCRPPRLPRPRPRPMYNPRP	-0.535

Sequence	shrunken log2 fold change
RRIRCRPPRLPRPRPRPNATPRP	0.382
RRIRCRPPRLPRPRPRPNEAPRP	0.00978
RRIRCRPPRLPRPRPRPNEEPRP	-0.00783
RRIRCRPPRLPRPRPRPNERPRP	0.0333
RRIRCRPPRLPRPRPRPNEWPRP	0.0357
RRIRCRPPRLPRPRPRPNFDPRP	-0.179
RRIRCRPPRLPRPRPRPNFHPRP	-0.259
RRIRCRPPRLPRPRPRPNFKPRP	-0.21
RRIRCRPPRLPRPRPRPNFTPRP	-0.158
RRIRCRPPRLPRPRPRPNFWPRP	-0.136
RRIRCRPPRLPRPRPRPNGCPRP	-0.0116
RRIRCRPPRLPRPRPRPNGGPRP	-0.00453
RRIRCRPPRLPRPRPRPNHRPRP	-0.233
RRIRCRPPRLPRPRPRPNIEPRP	-0.279
RRIRCRPPRLPRPRPRPNINPRP	-0.181
RRIRCRPPRLPRPRPRPNIYPRP	-0.588
RRIRCRPPRLPRPRPRPNLWPRP	0.00489
RRIRCRPPRLPRPRPRPNMKPRP	-0.769
RRIRCRPPRLPRPRPRPNMTPRP	-0.229
RRIRCRPPRLPRPRPRPNMYPRP	-0.916
RRIRCRPPRLPRPRPRPNPQPRP	-0.359
RRIRCRPPRLPRPRPRPNPRPRP	0.378
RRIRCRPPRLPRPRPRPNQCPRP	2.64
RRIRCRPPRLPRPRPRPNRWPRP	0.0409
RRIRCRPPRLPRPRPRPNTPPRP	-0.345

Sequence	shrunken log2 fold change
RRIRCRPPRLPRPRPRPNVLPRP	-0.464
RRIRCRPPRLPRPRPRPNVRPRP	-0.000423
RRIRCRPPRLPRPRPRPNYIPRP	-0.84
RRIRCRPPRLPRPRPRPPAQPRP	1.18
RRIRCRPPRLPRPRPRPPCLPRP	-0.199
RRIRCRPPRLPRPRPRPPCQPRP	0.0248
RRIRCRPPRLPRPRPRPPCTPRP	-0.0939
RRIRCRPPRLPRPRPRPPDTPRP	0.269
RRIRCRPPRLPRPRPRPPECPRP	0.131
RRIRCRPPRLPRPRPRPPEYPRP	-0.319
RRIRCRPPRLPRPRPRPPFTPRP	-0.15
RRIRCRPPRLPRPRPRPPGGPRP	0.539
RRIRCRPPRLPRPRPRPPGLPRP	0.72
RRIRCRPPRLPRPRPRPPHGPRP	0.499
RRIRCRPPRLPRPRPRPPHPPRP	0.339
RRIRCRPPRLPRPRPRPPKIPRP	0.277
RRIRCRPPRLPRPRPRPPKMPRP	0.222
RRIRCRPPRLPRPRPRPPLIPRP	-0.000572
RRIRCRPPRLPRPRPRPPPDPRP	1.26
RRIRCRPPRLPRPRPRPPQRPRP	0.94
RRIRCRPPRLPRPRPRPPREPRP	1.1
RRIRCRPPRLPRPRPRPPRFPRP	1.34
RRIRCRPPRLPRPRPRPPRPPRP	0.957
RRIRCRPPRLPRPRPRPPSKPRP	0.133
RRIRCRPPRLPRPRPRPPSPPRP	0.724

Sequence	shrunken log2 fold change
RRIRCRPPRLPRPRPRPPTAPRP	0.272
RRIRCRPPRLPRPRPRPPTDPRP	0.298
RRIRCRPPRLPRPRPRPPTVPRP	0.202
RRIRCRPPRLPRPRPRPPYEPRP	-0.306
RRIRCRPPRLPRPRPRPQEVPRP	0.144
RRIRCRPPRLPRPRPRPQGSPRP	0.0401
RRIRCRPPRLPRPRPRPQGYPRP	-0.0448
RRIRCRPPRLPRPRPRPQKTPRP	-0.162
RRIRCRPPRLPRPRPRPQKWPRP	-0.568
RRIRCRPPRLPRPRPRPQKYPRP	-0.698
RRIRCRPPRLPRPRPRPQLGPRP	-0.00405
RRIRCRPPRLPRPRPRPQLWPRP	0.366
RRIRCRPPRLPRPRPRPQMDPRP	-0.248
RRIRCRPPRLPRPRPRPQPRPRP	0.745
RRIRCRPPRLPRPRPRPQQRPRP	0.0521
RRIRCRPPRLPRPRPRPQRSPRP	2.66
RRIRCRPPRLPRPRPRPQSCPRP	0.0547
RRIRCRPPRLPRPRPRPQTQPRP	0.308
RRIRCRPPRLPRPRPRPQTTPRP	-0.155
RRIRCRPPRLPRPRPRPQYIPRP	-0.738
RRIRCRPPRLPRPRPRPRCLPRP	-0.32
RRIRCRPPRLPRPRPRPRFKPRP	-0.00257
RRIRCRPPRLPRPRPRPRFSPRP	-0.289
RRIRCRPPRLPRPRPRPRGKPRP	0.777
RRIRCRPPRLPRPRPRPRGLPRP	0.331
